Square brackets hold non-standard residues; d marks the D form. * marks the point of attachment. Heptanoyl = CCCCCCC(=O)*; Hexanoyl = CCCCCC(=O)*; Propionyl = CCC(=O)*; Butyryl = CCCC(=O)*
B1: IV-17-C Hexanoyl-RYYRWR-NH2 (peptide)
peptide: Hexanoyl-RYYRWR-NH2
SMILES: CCCCCC(=O)N[C@@H](CCCNC(=N)N)C(=O)N[C@@H](Cc1ccc(O)cc1)C(=O)N[C@@H](Cc1ccc(O)cc1)C(=O)N[C@@H](CCCNC(=N)N)C(=O)N[C@@H](Cc1c[nH]c2ccccc12)C(=O)N[C@@H](CCCNC(=N)N)C(N)=O
B2: IV-16-C Propionyl-RYYRWR-NH2 (peptide)
peptide: Propionyl-RYYRWR-NH2
SMILES: CCC(=O)N[C@@H](CCCNC(=N)N)C(=O)N[C@@H](Cc1ccc(O)cc1)C(=O)N[C@@H](Cc1ccc(O)cc1)C(=O)N[C@@H](CCCNC(=N)N)C(=O)N[C@@H](Cc1c[nH]c2ccccc12)C(=O)N[C@@H](CCCNC(=N)N)C(N)=O
notes: see recheck
B3: Ac-RYYRWR-NH2 (peptide)
peptide: Ac-RYYRWR-NH2
notes: also called parent peptide
B4: IV-43-B Hexanoyl-RYYRWA-NH2 (peptide)
peptide: Hexanoyl-RYYRWA-NH2
SMILES: CCCCCC(=O)N[C@@H](CCCNC(=N)N)C(=O)N[C@@H](Cc1ccc(O)cc1)C(=O)N[C@@H](Cc1ccc(O)cc1)C(=O)N[C@@H](CCCNC(=N)N)C(=O)N[C@@H](Cc1c[nH]c2ccccc12)C(=O)N[C@@H](C)C(N)=O
B5: IV-39-B Hexanoyl-RYYAWR-NH2 (peptide)
peptide: Hexanoyl-RYYAWR-NH2
SMILES: CCCCCC(=O)N[C@@H](CCCNC(=N)N)C(=O)N[C@@H](Cc1ccc(O)cc1)C(=O)N[C@@H](Cc1ccc(O)cc1)C(=O)N[C@@H](C)C(=O)N[C@@H](Cc1c[nH]c2ccccc12)C(=O)N[C@@H](CCCNC(=N)N)C(N)=O
B6: IV-41-B Hexanoyl-RYYRAR-NH2 (peptide)
peptide: Hexanoyl-RYYRAR-NH2
SMILES: CCCCCC(=O)N[C@@H](CCCNC(=N)N)C(=O)N[C@@H](Cc1ccc(O)cc1)C(=O)N[C@@H](Cc1ccc(O)cc1)C(=O)N[C@@H](CCCNC(=N)N)C(=O)N[C@@H](C)C(=O)N[C@@H](CCCNC(=N)N)C(N)=O
B7: IV-37-B Hexanoyl-RYARWR-NH2 (peptide)
peptide: Hexanoyl-RYARWR-NH2
SMILES: CCCCCC(=O)N[C@@H](CCCNC(=N)N)C(=O)N[C@@H](Cc1ccc(O)cc1)C(=O)N[C@@H](C)C(=O)N[C@@H](CCCNC(=N)N)C(=O)N[C@@H](Cc1c[nH]c2ccccc12)C(=O)N[C@@H](CCCNC(=N)N)C(N)=O
B8: IV-18-C Heptanoyl-RYYRWR-NH2 (peptide)
peptide: Heptanoyl-RYYRWR-NH2
SMILES: CCCCCCC(=O)N[C@@H](CCCNC(=N)N)C(=O)N[C@@H](Cc1ccc(O)cc1)C(=O)N[C@@H](Cc1ccc(O)cc1)C(=O)N[C@@H](CCCNC(=N)N)C(=O)N[C@@H](Cc1c[nH]c2ccccc12)C(=O)N[C@@H](CCCNC(=N)N)C(N)=O
notes: see recheck
B9: IV-15-A Butryl-RYYRWR-NH2 (peptide)
peptide: Butyryl-RYYRWR-NH2
SMILES: CCCC(=O)N[C@@H](CCCNC(=N)N)C(=O)N[C@@H](Cc1ccc(O)cc1)C(=O)N[C@@H](Cc1ccc(O)cc1)C(=O)N[C@@H](CCCNC(=N)N)C(=O)N[C@@H](Cc1c[nH]c2ccccc12)C(=O)N[C@@H](CCCNC(=N)N)C(N)=O
B10: IV-12-B Ac-RY(D)YR(D)WNH2 (peptide)
peptide: Ac-R[dY]Y[dR]WR-NH2
notes: It is not clear from the print which residues the (D) marks belong to, nor whether the last Arg is missing on purpose

Key:
[1] = target: T1, human ORL-1 receptor (opioid receptor like 1) (human, UniProt P41146 1-370); experiment: cell-based or functional assay
T1 sequence (P41146 whole entry): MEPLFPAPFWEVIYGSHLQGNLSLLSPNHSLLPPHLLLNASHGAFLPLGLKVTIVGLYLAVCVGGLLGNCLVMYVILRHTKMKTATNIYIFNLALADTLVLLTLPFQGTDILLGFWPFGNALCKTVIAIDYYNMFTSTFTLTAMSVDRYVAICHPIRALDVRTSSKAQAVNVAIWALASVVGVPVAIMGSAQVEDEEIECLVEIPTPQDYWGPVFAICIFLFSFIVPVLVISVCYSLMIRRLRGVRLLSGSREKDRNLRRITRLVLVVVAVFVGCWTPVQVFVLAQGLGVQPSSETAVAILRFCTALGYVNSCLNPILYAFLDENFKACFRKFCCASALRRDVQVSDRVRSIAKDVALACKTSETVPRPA

[2] = target: T1, human ORL-1 receptor (opioid receptor …); experiment: [3H]nociceptin displacement at ORL1
[3] = target: T1, human ORL-1 receptor (opioid receptor …); experiment: binding assay at ORL1 (taken as [3H]nociceptin displacement as in Table 1)

Binder | [^35S]GTPγS Binding Percent Stimulation [1] [%] | IC50 [2] [nM] | [^35S]GTPγS Binding EC50 [1] [nM] | IC50 [3] [nM]
B1 | 18 | 2.6 |  | 
B2 | 82 | 1.2 | 22.3 | 
B3 | 100 | 0.72 | 1.2 | 
B4 |  |  |  | 311
B5 |  |  |  | 1000
B6 |  |  |  | 710
B7 |  |  |  | 79
B8 | 54 | 2.6 | 16.9 | 
B9 | 63 | 4.3 | 35.3 | 
B10 | < 10 | 1140 | > 10000 | 

— patent publication US20030166571A1 (SYNVAX, published 2003)
